The text below walks through data of US20170218389A1, “METHODS AND COMPOSITIONS FOR STOMATA REGULATION, PLANT IMMUNITY, AND DROUGHT TOLERANCE” (priority 2016, published 2017).

The subject of data set [1] is stomata of Arabidopsis epidermal peels. Kind of data set: Stomatal aperture in epidermal peels of Col-0 and AtGCN4 overexpressor lines. Type of data set: cell-based. The settings on record: coronatine treatment. As for the experimental part:
A representative histogram is depicted of stomatal aperture in Arabidopsis plant epidermal peels from wild-type Col-0 and GCN4-overexpressing (AtGCN4-OE6 and AtGCN4-OE16) lines measured 4 hours after treatment with MES buffer, COR, ABA, or COR+ABA.
Upon detection of PAMPs, stomata rapidly closes to prevent entry of the pathogen into apoplast (Melotto et al., 2006; Lee et al., 2013). […] Epidermal peels of AtGCN4 overexpressing lines were used to investigate whether stomata reopen after treatment with MES buffer (stomata opening buffer; control) or the host pathogen P. syringae pv. tomato DC3000. In wild-type Col-0, stomata reopened 3 hpi, while in the AtGCN4 overexpressor lines (AtGCN4-OE6 and AtGCN4-OE16), stomata remained closed even 4 hpi with P. syringae pv. tomato DC3000. Stomatal aperture was measured after ABA and coronatine treatments in order to investigate stomatal function in AtGCN4 overexpressor lines. ABA treatment induces stomatal closure in plants. After ABA treatment, the stomatal aperture size was reduced due to closing in both wild-type Col-0 and the AtGCN4 overexpressor lines.

In data set [2] the target is T1, AtGCN4 (Arabidopsis thaliana GCN4, general control non-repressible 4, At3G54540) (Arabidopsis thaliana, UniProt Q9M1H3 1-723).
T1 construct: Yeast two-hybrid fusion; in BiFC the C-terminal half of YFP was fused to the N-terminus of AtGCN4 (c-YFP-AtGCN4); also called c-YFP-AtGCN4
T1 sequence: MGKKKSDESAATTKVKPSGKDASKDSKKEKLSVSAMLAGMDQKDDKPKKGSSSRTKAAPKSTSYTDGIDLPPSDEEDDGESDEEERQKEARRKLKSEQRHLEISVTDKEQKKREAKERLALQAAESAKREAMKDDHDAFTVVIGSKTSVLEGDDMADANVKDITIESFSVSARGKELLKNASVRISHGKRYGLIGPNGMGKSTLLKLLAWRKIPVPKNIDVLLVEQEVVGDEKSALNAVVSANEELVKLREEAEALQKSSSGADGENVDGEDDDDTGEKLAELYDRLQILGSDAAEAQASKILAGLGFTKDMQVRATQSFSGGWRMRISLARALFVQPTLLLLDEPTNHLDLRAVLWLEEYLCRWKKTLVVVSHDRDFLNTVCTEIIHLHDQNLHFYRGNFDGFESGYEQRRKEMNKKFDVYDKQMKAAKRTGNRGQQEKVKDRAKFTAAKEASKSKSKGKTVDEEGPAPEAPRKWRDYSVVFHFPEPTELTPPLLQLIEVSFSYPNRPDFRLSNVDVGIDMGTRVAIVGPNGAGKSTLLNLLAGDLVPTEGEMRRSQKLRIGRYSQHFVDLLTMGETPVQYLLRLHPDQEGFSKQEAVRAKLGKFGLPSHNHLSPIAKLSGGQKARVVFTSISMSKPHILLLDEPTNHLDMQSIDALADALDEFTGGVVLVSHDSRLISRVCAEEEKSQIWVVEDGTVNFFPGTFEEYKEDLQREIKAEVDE
Kind of data set: title of Example 19 (yeast two-hybrid, BiFC). From the text:
Stable transgenic lines were developed expressing GFP fused to the C-terminal end of AtGCN4 and driven under its native promoter. AtGCN4-GFP localized in guard cells, plasma membrane, and cytoplasm. Without being limited by theory, as AtGCN4 localized in the plasma membrane and guard cells, and plays role in the stomatal function, the present inventors reasoned that AtGCN4 interacts with other proteins responsible for stomatal function, such as SLAC1 and RIN4. SLAC1 closes stomata on ABA signaling (Vahisalu et al., 2008) and RIN4 activates a plasma membrane H⁺-ATPase and opens stomata (Liu et al., 2009). A yeast two-hybrid system between GCN4:SLAC1 and GCN4:RIN4 was used to investigate potential protein-protein interactions. AtGCN4 interacted with SLAC1 and RIN4. A BiFC assay (Hu et al., 2002) was used to verify these interactions in planta. AtGCN4 was co-transformed in yeast with either SLAC1 or RIN4 to observe protein-protein interaction using a yeast two-hybrid system. […] Protein-protein interactions were observed as yellow fluorescence with an equivalent bright field image. […] Protein-protein interactions were observed as yellow fluorescence while the plasma membrane was visualized as red fluorescence. […]

In data set [3] the target is T2, Jasmonate-Zim-Domain Protein 9 (JAZ9, At1g70700), full-length, Q8W4J8.
T2 chain: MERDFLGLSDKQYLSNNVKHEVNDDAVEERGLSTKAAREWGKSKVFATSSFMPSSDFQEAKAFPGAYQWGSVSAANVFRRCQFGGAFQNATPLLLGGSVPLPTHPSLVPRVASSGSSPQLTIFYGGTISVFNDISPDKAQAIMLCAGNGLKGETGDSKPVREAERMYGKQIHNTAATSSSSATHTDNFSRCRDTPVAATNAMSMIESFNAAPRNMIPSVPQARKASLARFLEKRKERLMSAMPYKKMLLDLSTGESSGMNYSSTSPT

For `CC[C@H]1C=C(C(=O)N[C@@]2(C(=O)O)C[C@@H]2CC)[C@H]2CCC(=O)[C@H]2C1` [coronatine], the results for the Stomatal aperture size entry in data set [1] (Col-0 plants) and in data set [1] (GCN4 overexpressor lines) were “increased aperture size” and “did not increase”, respectively.

B1: RIN4 (Rpm1 Interaction Protein 4) (other, UniProt Q8GYN5 1-211, looked up)
chain: MARSNVPKFGNWEAEENVPYTAYFDKARKTRAPGSKIMNPNDPEYNSDSQSQAPPHPPSSRTKPEQVDTVRRSREHMRSREESELKQFGDAGGSSNEAANKRQGRASQNNSYDNKSPLHKNSYDGTGKSRPKPTNLRADESPEKVTVVPKFGDWDENNPSSADGYTHIFNKVREERSSGANVSGSSRTPTHQSSRNPNNTSSCCCFGFGGK
notes: Yeast two-hybrid fusion; in BiFC the N-terminal half of YFP was fused to the C-terminus of RIN4 (RIN4-nYFP); also called RIN4-nYFP
Consider B1, for which, in data set [2], the binding result is recorded as “binds”.

B2: His-tagged NHR1A protein expressed in E. coli (full-length recombinant AtNHR1A, N-terminal His-tagged fusion protein) (protein)
chain: MTIVSTCCPFGLSNVTKCINFVQIKEAKTMVKYNFKKITVVPNGKQFVDIVLSRTQRQTPTVVHKGDRICKLRSFYMRKVKFTESNFNEKLSAIIDEFPRLKEIQPFYEDLLHVLYNKDHYKLALGQVNTAKNKISKIAMDYVKLLKHGDSLYRCKCLKVAALGRMCTVMKGIGPSLAYLEQVRQHIARLPSIDPNTRTLLICGCPNVGKSSFMNKVTRADVAVQPYAFTTKSLFLGHTDYKCLRYQVIDTPGLLDREIEDRNIIELCSITALAHIRAAVLFFLDISGSCGYTIAQQASLFHNIKSVFKNKPLVIVCNKTDLMPMENLSEEDRKLIEEMKDEAMKTEMGASEEAVILEMSTLTEEGVMSRLLDQRVAAKMKSKKIGDHLNRFHVAMPKSRDDQERLPCIPQVAGEKEKRKTEKDLEDENGGAGVYSASLKKNYILAKEEWKDDIIPEICDCHNVADFVDSDILNRLEELTSEESLRKAEEEEVGFEIEGEELTEKEKNDLAAIRKKKALLIEESRLKKSNAQNRAAVPRKFDKDKKFTRKRMGRELSSLGLDPSSALNRARSKSRGRKRERYDDLSNDAMDVDVNDDEQHKKKKMCLRSKSRSLSRSRSVSRPPHEVVPGEGFKDSSQKIKAIKIGHKSHRKRDKAARRGEADRVIPSLKPKHLFSGKRGNGKNQRR
On to B2, for which, in data set [3], the “rate of GTP hydrolysis” value is recorded as “in the presence of JAZ9, the rate of GTP hydrolysis significantly decreased”.

B3: SLAC1 (Slow Anion Channel-Associated 1) (other, UniProt Q9LD83 1-556, looked up)
chain: MERKQSNAHSTFADINEVEDEAEQELQQQENNNNKRFSGNRGPNRGKQRPFRGFSRQVSLETGFSVLNRESRERDDKKSLPRSGRSFGGFESGGIINGGDGRKTDFSMFRTKSTLSKQKSLLPSIIRERDIENSLRTEDGETKDDSINENVSAGRYFAALRGPELDEVKDNEDILLPKEEQWPFLLRFPIGCFGICLGLSSQAVLWLALAKSPATNFLHITPLINLVVWLFSLVVLVSVSFTYILKCIFYFEAVKREYFHPVRVNFFFAPWVVCMFLAISVPPMFSPNRKYLHPAIWCVFMGPYFFLELKIYGQWLSGGKRRLCKVANPSSHLSVVGNFVGAILASKVGWDEVAKFLWAVGFAHYLVVFVTLYQRLPTSEALPKELHPVYSMFIAAPSAASIAWNTIYGQFDGCSRTCFFIALFLYISLVARINFFTGFKFSVAWWSYTFPMTTASVATIKYAEAVPGYPSRALALTLSFISTAMVCVLFVSTLLHAFVWQTLFPNDLAIAITKRKLTREKKPFKRAYDLKRWTKQALAKKISAEKDFEAEEESHH
notes: Yeast two-hybrid fusion; in BiFC the N-terminal half of YFP was fused to the C-terminus of SLAC1 (SLAC1-nYFP); also called SLAC1-nYFP
For the molecule B3, the binding result in data set [2] is on record as “binds”.
